# Measurements: patent US11932683B2, “Cellular factors involved in the cytotoxicity of Staphylococcus aureus leukocidins: novel therapeutic targets” (NEW YORK UNIVERSITY, priority 2013, dated 2024)
# T1: DARC (Homo sapiens, UniProt Q16570)
# T1 construct: expressed in transfected cells; host or cells: HEK293T
# T1 sequence (Q16570 1-336): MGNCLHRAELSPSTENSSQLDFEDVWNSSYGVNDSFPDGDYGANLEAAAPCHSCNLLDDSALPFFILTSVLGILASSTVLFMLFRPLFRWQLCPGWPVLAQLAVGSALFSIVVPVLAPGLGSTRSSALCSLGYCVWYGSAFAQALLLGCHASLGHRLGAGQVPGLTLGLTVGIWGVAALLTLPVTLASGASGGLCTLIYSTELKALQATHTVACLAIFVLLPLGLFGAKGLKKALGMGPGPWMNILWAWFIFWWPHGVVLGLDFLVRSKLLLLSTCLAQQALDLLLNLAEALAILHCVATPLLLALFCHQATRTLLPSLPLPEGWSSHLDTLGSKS
# T2: CXCR1 (Homo sapiens, UniProt P25024)
# T2 sequence (P25024 1-350): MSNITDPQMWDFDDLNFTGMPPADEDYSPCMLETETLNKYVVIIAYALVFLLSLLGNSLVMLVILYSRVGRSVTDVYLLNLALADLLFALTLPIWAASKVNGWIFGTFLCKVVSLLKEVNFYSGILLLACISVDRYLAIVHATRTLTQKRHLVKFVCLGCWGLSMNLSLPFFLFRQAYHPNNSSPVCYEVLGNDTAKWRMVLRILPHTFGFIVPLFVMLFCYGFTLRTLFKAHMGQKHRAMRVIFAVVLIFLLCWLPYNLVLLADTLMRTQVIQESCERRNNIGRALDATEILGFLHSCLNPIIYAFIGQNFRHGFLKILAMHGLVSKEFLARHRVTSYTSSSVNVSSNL
# T3: CXCR2 (Homo sapiens, UniProt P25025)
# T3 sequence (P25025 1-360): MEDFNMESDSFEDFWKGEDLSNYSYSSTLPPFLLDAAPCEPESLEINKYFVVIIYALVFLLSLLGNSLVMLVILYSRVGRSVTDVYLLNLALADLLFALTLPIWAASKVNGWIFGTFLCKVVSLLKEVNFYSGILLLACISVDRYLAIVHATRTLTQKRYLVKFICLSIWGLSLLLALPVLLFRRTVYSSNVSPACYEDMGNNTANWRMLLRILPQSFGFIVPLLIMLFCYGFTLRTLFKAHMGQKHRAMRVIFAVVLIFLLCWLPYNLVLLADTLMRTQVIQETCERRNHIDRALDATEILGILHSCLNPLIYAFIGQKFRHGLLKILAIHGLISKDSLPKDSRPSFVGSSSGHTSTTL
# B1: LukED: S. aureus bicomponent pore-forming leukotoxin leukocidin E/D, LukE plus LukD subunits (protein)
# chain 1: NTNIENIGDGAEVIKRTEDVSSKKWGVTQNVQFDFVKDKKYNKDALIVKMQGFINSRTSFSDVKGSGYELTKRMIWPFQYNIGLTTKDPNVSLINYLPKNKIETTDVGQTLGYNIGGNFQSAPSIGGNGSFNYSKTISYTQKSYVSEVDKQNSKSVKWGVKANEFVTPDGKKSAHDRYLFVQSPNGPTGSAREYFAPDNQLPPLVQSGFNPSFITTLSHEKGSSDTSEFEISYGRNLDITYATLFPRTGIYAERKHNAFVNRNFVVRYEVNWKTHEIKVKGHN
# chain 2: AQHITPVSEKKVDDKITLYKTTATSDNDKLNISQILTFNFIKDKSYDKDTLVLKAAGNINSGYKKPNPKDYNYSQFYWGGKYNVSVSSESNDAVNVVDYAPKNQNEEFQVQQTLGYSYGGDINISNGLSGGLNGSKSFSETINYKQESYRTTIDRKTNHKSIGWGVEAHKIMNNGWGPYGRDSYDPTYGNELFLGGRQSSSNAGQNFLPTHQMPLLARGNFNPEFISVLSHKQNDTKKSKIKVTYQREMDRYTNQWNRLHWVGNNYKNQNTVTFTSTYEVDWQNHTVKLIGTDSKETNPGV
# modifications: left off: small tags and cut ends
# notes: S. aureus bicomponent pore-forming leukotoxin leukocidin E/D, LukE plus LukD subunits
# Experiments:
# [1] = test system: human PMNs; assay: Viability of PMNs challenged with a lethal dose of LukED in the presence of chemokines; format: cell-based; details: LukED 75 nM
# [2] = test system: PMNs; assay: Ex vivo infection of PMNs with toxin-producing S. aureus strains; format: cell-based, human; details: multiplicity of infection of 10
# Experimental: Ex vivo infection experiments. S. aureus strains containing either the pOS1-plukA-lukAs.s.-6×His vector construct containing either no toxin (empty), lukED or lukE^DR4D were subcultured for 4.5 hours, followed by normalization to 1×10^9 CFU per ml in RPMI+10% FBS. Cells were diluted 1:10 and 20 μl were added to 80 μl of media containing 2×10^5 PMNs seeded into 96-well plates. Infections were carried out for 3.5 hours at 37° C. with shaking at 180 RPM. 2 μg ml-1 of lysostaphin was added for 20 minutes at 37° C. with shaking at 180 RPM to kill all bacteria. Cells were centrifuged for 5 minutes at 1,500 RPM and 4° C., followed by fixing in FACS fixing buffer (PBS+2% FBS+2% paraformaldehyde+0.05% sodium azide). To analyze toxin mediated killing by flow cytometry, cellular depletion from gated live cells was evaluated. Percent cell death was calculated by comparing cells remaining in the live gate to that of Newman ΔΔΔΔ strain containing the empty pOS1-plukA modified empty vector (no toxin), which was set to 0% dead.
# [3] = test system: monocytes within PBMCs; assay: LukED treatment of human PBMCs, CD14/CD3 flow cytometry; format: cell-based; details: PBMCs from a Δ32Ccr5 donor; LukED 75 nM
# Experimental: (§1) Isolation of PBMCs. Blood was obtained as buffy coats with the consent of de-identified donors from the New York Blood Center. PBMCs were isolated from blood using a Ficoll-Paque PLUS gradient (GE Amersham) and gated on CCR5^+ cells, followed by anti-CD3 and CD14 cell surface staining for lymphocyte and monocyte populations. Cells were then incubated with LukED (75 nM) in the presence or absence of maraviroc (MVC, 100 ng ml-1).
# CCR5 inhibitor and ligands. Maraviroc was obtained through the AIDS Research and Reference Reagent Program, Division of AIDS (NIAID, NIH) and used at a final concentration of 100 ng ml-1.
# (§2) FACS analysis. Cell staining was performed as described previously (Alonzo et al., “CCR5 is a Receptor for Staphylococcus aureus Leukotoxin ED,” Nature 493:51-55 (2013), which is hereby incorporated by reference in its entirety). FACS data were obtained using FACSDiva software on a LSRII flow cytometer (BD Biosciences). Data was analyzed using FlowJo software (Treestar).
# (§3) Leukotoxin treatments. HEK293T cells, THP-1, primary human PBMCs and primary murine peritoneal exudate cells were treated with LukE, LukD or LukED as previously described (Alonzo et al., “CCR5 is a Receptor for Staphylococcus aureus Leukotoxin ED,” Nature 493:51-55 (2013), which is hereby incorporated by reference in its entirety). In all experiments 1-2×10^5 cells were seeded into 96-well plates. […]
# [4] = target: T1, DARC; assay: Toxin susceptibility of HEK293T cells transfected with DARC; format: cell-based; details: ethidium bromide permeability (1 hr; HlgAB/HlgCB 20 μg/ml)
# [5] = target: T4, CCR5 (Homo sapiens, UniProt P51681); assay: Toxin susceptibility of HEK293T cells transfected with CCR5; format: cell-based; details: ethidium bromide permeability (1 hr; HlgAB 20 μg/ml)
# T4 construct: expressed in transfected cells; host or cells: HEK293T
# [6] = test system: human PMNs; assay: Viability of primary human neutrophils (PMNs) treated with leukotoxins; format: cell-based
# [7] = test system: THP-1 cells; assay: Viability of THP-1 cells transduced with non-target or Cxcr2 shRNA treated with LukED; format: cell-based, human; details: Cxcr2 shRNA versus non-target shRNA
# Experimental: (§4) Cell culture conditions and viral transductions. Primary human cells and THP-1 were cultured at 37° C. with 5% CO2 in RPMI supplemented with 10% fetal bovine serum (FBS; Atlanta Biologicals) and penicillin (100 U ml-1) and streptomycin (0.1 mg ml-1) (Mediatech) unless stated otherwise. Overexpression and lentiviral-based knockdown of Cxcr2 or non-target shRNA were performed as previously described (Wan et al., “Cytokine Signals Through PI-3 Kinase Pathway Modulate Th17 Cytokine Production by CCR6+ Human Memory T Cells,” J. Exp. Med. 208:1875-1887 (2011), which is hereby incorporated by reference in its entirety) and maintained in 1.3 μg ml-1 puromycin. HEK293T cells were cultured at 37° C. with 5% CO2 in DMEM (Cellgro) and supplemented as described above.
# as §3
# [8] = test system: PBMC subsets (NK cells, CD8^+ T cells, monocytes); assay: Susceptibility of PBMC subsets to toxins, flow cytometry; format: cell-based, human
# Experimental: as §1, §2, §3
# [9] = test system: murine peritoneal exudate cells (PMNs, CCR5^+ macrophages); assay: Killing of murine peritoneal exudate cells (PEC) by toxins in vitro; format: cell-based, mouse; details: 300 nM
# Experimental: Murine in vitro and in vivo experiments. To evaluate LukED-mediated killing of murine cells in vitro, C57BL/6 WT mice (Taconic) were injected intraperitoneally with 1×10^7 CFU of heatkilled S. aureus Newman ΔlukED. Twenty-four hours post injection, another dose of 1×10^7 CFU of heat-killed S. aureus Newman ΔlukED was injected as before. After an additional twenty-four hours, mice were sacrificed and immune cells were collected by peritoneal cavity lavage using 8 ml of PBS. Red blood cells were lysed using 2 ml ACK lysis buffer (Gibco) followed by resuspension of remaining peritoneal exudate cells in RPMI+10% FBS. Cells were incubated with PBS, LukED or LukE^DR4D (300 nM) and incubated for 30 minutes on ice. After incubation, the cells were washed three times with PBS then stained with the fixable viability dye eFluor-450, followed by cell surface staining with CD11b, B220, F480, CD3, Ly6G, CCR5 and CXCR2 antibodies. Cell viability of specific immune cell populations was subsequently analyzed on an LSRII flow cytometer (BD). FACS plots are representative of results obtained from cells isolated from at least 3 independent animals.
# [10] = test system: mice; assay: Survival of mice upon bloodstream (intravenous) administration of purified toxin; format: in vivo, mouse; details: intravenous injection, 10 μg of each subunit, n=5
# [11] = test system: human RBCs; assay: LukED-mediated lysis of human red blood cells; format: cell-based; details: RBCs from nine donors, DARC+ and DARC−
# [12] = target: T2, CXCR1; assay: Toxin susceptibility of HEK293T cells transfected with chemokine receptor CXCR1; format: cell-based; set-up: expressed in transfected cells; host or cells: HEK293T; details: viability (600 nM) or ethidium bromide permeability (1 hr; HlgAB/HlgCB 20 μg/ml)
# [13] = target: T3, CXCR2; assay: Toxin susceptibility of HEK293T cells transfected with chemokine receptor CXCR2; format: cell-based; set-up: expressed in transfected cells; host or cells: HEK293T; details: viability (600 nM) or ethidium bromide permeability (1 hr; HlgAB/HlgCB 20 μg/ml)
# Experimental: as §4, §3
# T4 sequence (P51681 whole entry): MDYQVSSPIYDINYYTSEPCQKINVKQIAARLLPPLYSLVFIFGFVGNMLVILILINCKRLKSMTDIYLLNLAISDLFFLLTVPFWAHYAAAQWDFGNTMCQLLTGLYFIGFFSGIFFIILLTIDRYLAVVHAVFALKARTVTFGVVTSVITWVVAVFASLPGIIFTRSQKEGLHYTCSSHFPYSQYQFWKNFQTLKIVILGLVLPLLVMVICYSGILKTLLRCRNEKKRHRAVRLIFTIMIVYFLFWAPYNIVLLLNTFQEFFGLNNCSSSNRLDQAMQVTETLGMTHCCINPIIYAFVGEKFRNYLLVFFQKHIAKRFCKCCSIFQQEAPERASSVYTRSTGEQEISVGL
Molecule,prevention of LukED-mediated death of PMNs [1],inhibition of cytotoxic activity of the LukED-producing S. aureus strain on PMNs [2],LukED targeting of monocytes [3],susceptibility of DARC-transfected HEK293T cells to toxin [4],susceptibility of CCR5-transfected HEK293T cells to toxin [5],"cytotoxic activity against hPMNs ([6]; LukE or alanine mutant mixed equimolar with LukD, n=8 donors)","susceptibility of PMNs to toxin (viability) ([6]; PMNs from Ccr5+/+ and Δ32Ccr5 donors, 75 nM)",LukED killing of THP-1 cells after CXCR2 knockdown [7],cytotoxicity to NK cells and CD8+ T cells in PBMCs [8],susceptibility of murine CCR5+ macrophages [9],murine PMNs killed ([9]; 30 minutes on ice),lethality in mice [10],hemolysis of human RBCs [11],susceptibility of CXCR1-transfected HEK293T cells to toxin [12],susceptibility of CXCR2-transfected HEK293T cells to toxin [13]
"CXCL8: chemokine ligand of CXCR1/CXCR2, obtained from BioLegend",prevented LukED-mediated death of PMNs,inhibited by CXCL8,,,,,,,,,,,,,
B1,,,"targeted in a LukED-mediated, CCR5-independent manner",sufficient to render HEK293T cells susceptible,"targets CCR5, CXCR1, CXCR2, and DARC to kill host cells",targeted and killed the hPMNs,equally susceptible to LukED,rendered cells resistant to LukED killing,cytotoxic to the majority of NK cells and a subset of CD8^+ T cells,equally susceptible to both LukED and LukE^DR4D,~79%,rapid death,some donors were susceptible to LukED hemolysis while others were not,sufficient to render HEK293T cells susceptible,sufficient to render HEK293T cells susceptible
